Experimental data published in patent US7135457B1, “Random peptides that bind to gastro-intestinal tract (GIT) transport receptors and related methods” (Cytogen Corporation, priority 1997, dated 2006).
Square brackets hold non-standard residues; d marks the D form. Peptide text beside a SMILES is read from it. * marks the point of attachment. Dansyl = CN(C)c1cccc2c(S(=O)(=O)*)cccc12

Assays:
[1] = Peptide stability in simulated intestinal fluid (SIF); assay type: in vitro ADME; conditions: rank of relative stability to SIF, 1 = most stable
Description: The relative stability for ZElan031, ZElan053 and ZElan054 was determined in simulated intestinal fluid (SIF) SIF was made by dissolving 100 mg of pancreatin (Sigma cat# P-5 1625, lot# 122H0812) in 8.4 ml of phosphate stock solution, adjusting the pH to 7.5 with 0.2N NaOH and adjusting the volume to 10 ml with water.
Peptide (3.25 mg) was dissolved in 3.25 ml of 10,000 fold diluted SIF solution at 37° C. Aliquots (0.7 ml) of the digestion solution were then withdrawn at <1 min, 1 h, 3 h, and 21 h or 24 h. The samples were quickly passed through a syringe filter (Millipore Millex-GV 0.22 μm, part# SLGV025LS, lot# H2BM95250) and 300 μL of the filtered solution was immediately injected onto a Hewlett-Packard HPLC system equipped with a C-8 column (Applied Biosystems column and guard column: column-p/n 0711-0023 Spheri-5 ODS 5 μm, 220×4.6 mm). The products were eluted at 1.5 ml/min using an acetonitrile-water gradient. The major fluorescent peaks were collected, lyopholized and identified by MS analysis.

BSA = BSA (Bos taurus, UniProt P02769); test: Phage ELISA on BSA (background control protein); assay type: binding
Sequence of BSA (P02769 25-607): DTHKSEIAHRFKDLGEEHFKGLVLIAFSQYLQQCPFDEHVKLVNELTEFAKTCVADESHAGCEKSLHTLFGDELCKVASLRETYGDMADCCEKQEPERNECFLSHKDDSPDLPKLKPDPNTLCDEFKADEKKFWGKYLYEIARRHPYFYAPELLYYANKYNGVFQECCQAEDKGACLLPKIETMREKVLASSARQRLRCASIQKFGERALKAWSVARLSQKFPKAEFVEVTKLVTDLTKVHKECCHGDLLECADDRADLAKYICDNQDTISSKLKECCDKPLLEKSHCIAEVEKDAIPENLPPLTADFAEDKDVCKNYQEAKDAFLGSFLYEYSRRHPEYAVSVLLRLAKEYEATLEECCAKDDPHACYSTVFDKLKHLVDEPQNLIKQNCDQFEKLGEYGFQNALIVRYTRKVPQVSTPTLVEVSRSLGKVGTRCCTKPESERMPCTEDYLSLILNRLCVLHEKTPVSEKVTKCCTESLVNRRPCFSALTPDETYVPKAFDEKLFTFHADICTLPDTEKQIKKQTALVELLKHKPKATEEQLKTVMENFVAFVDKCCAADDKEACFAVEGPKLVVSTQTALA
Description: 96 well plates were coated overnight with GIT receptor, BSA and, optionally, IDE (insulin degrading enzyme, an irrelevant His-fusion protein) or hTF. The plates were blocked for one hour with 0.5% BSA-PBS. After clarification, the amplified phage were diluted 1:100 in 1% BSA plus 0.05% Tween 20 in PBS and added to the plates. Following incubation of the plates on a rotator for 1 to 2 hours, the plates were washed 5 times with 1% BSA plus 0.05% Tween 20 in PBS. Dilute anti-M13-HRP conjugate (anti-M13 antibody linked to horse radish peroxidase (HRP)) was added to all the wells and the plate was incubated for one hour on a rotator. After the plates were washed 5 times, as described above, TMB substrate was added to the wells. The plates were read at 650 nm absorbance.

[2] = Drug potency, peptide loading and size of coacervated particles; assay type: physicochemical; conditions: formulation 1 particles (coacervation), blend; for Insulin (insulin potency): coated with the named peptide; for Peptide (level of peptide coated onto the particles): measured by fluorescence
[3] = for presence in the systemic circulation (in words): text summary of HPT1 and hPEPT1 pools; for transport from the GIT closed loop into the portal circulation (in words): text summary of hSI, D2H, HPT1, hPEPT1 pools; for presence in the intestine samples or fractions (in words): text summary of the four pools
Description: In particular, phages selected in vitro to each receptor or binding site located in the GIT were amplified in E. coli, PEG-precipitated, resuspended in TBS and the titer of each phage sample was determined by plaquing in E. coli as described above. […] Using the in situ loop model described above, 0.5 ml of preselected phage library solution was injected into the tied-off portion of the duodenum/jejunum. Blood was collected into heparinized tubes from the portal vein at 0, 15, 30, 45 and 60 minutes. A blood sample was taken from the systemic circulation at the end of the experiment. Similarly, the portion of the duodenum/jejunum used for phage injection was taken at the end of the experiment.
Thirty microliters of the collected portal blood (neat and 10^−2, 10^−4, 10^−6 dilutions) was added to 30 μl E. coli K91Kan cells (overnight culture) and incubated at 37° C. for 10 min. Subsequently, 3 ml of top agarose was added and the samples were plated for plaques. One hundred microliters of the collected portal blood was added to 100 μl of E. coli K91Kan. Five milliliters of LB medium was then added and the samples were incubated at 37° C. overnight in a rotating microbial incubator. The E. coli was removed by centrifugation and the amplified phage supernatant samples were either titered directly or were PEG-precipitated, resuspended in TBS and titered. Following titration of the amplified phage, samples containing phage from each set of animals were combined, adjusting the titer of each sample to the same titer, and were plated for plaques on LB agar plates (22 cm^2 square plates). Either 12,000 or 24,000 phage were plated for plaques.
Thirty microliters of the collected systemic blood (neat and 10^−2, 10^−4, 10^−6 dilutions) was added to E. coli K91Kan cells, incubated at 37° C. for 10 min. Three ml of top agarose was then added and the samples were plated for plaques. One hundred microliters of the collected systemic blood was added to 100 μl of E. coli K91Kan, incubated at 37° C. for 10 min. Five milliliters of LB medium was then added and the samples were incubated at 37° C. overnight in a rotating microbial incubator. The E. coli was removed by centrifugation and the amplified phage supernatant samples were either titered directly or were PEG-precipitated, resuspended in TBS and titered. Following titration of the amplified phage, samples containing phage from each set of animals were combined, adjusting the titer of each sample to the same titer, and were plated for plaques on LB agar plates (22 cm^2 square plates). Either 12,000 or 24,000 phage were plated for plaques. The intestinal tissue portion used in each closed loop was excised. […] Alternatively, the tissue (in PBS supplemented with protease inhibitors) was homogenized in an Ultra Thorex homogenizer, washed 3 times in PBS containing protease inhibitors and resuspended in PBS containing protease inhibitors (Int-G samples). In each case, serial dilutions (neat and 10^−2, 10^−4, 10^−6 dilutions) of the tissue homogenate was titered in E. coli.
The phage amplified from the portal blood, systemic blood and intestinal tissue was plated for plaques. […] The filters were air-dried, and the DNA was cross-linked to the filter (UV crosslinking: 2 min, high setting). The filters were incubated in pre-hybridization buffer (6×SSC, 5×Denhardt's solution, 0.1% SDS, 20 μg/ml yeast tRNA) at 40° C.-45° C. for at least 60 min.
Synthetic oligonucleotides, (22-mers), complimentary to regions coding for the receptor or binding sites used to create the preselected phage library, were synthesized (see Table 14 below).
The oligonucleotides (5 pmol) were 5′ end labelled with ^32P-ATP and T4 polynucleotide kinase and approximately 2.5 pmol of labelled oligonucleotide was used in hybridization studies. […] The filters were air-dried and exposed for autoradiography for 15 hours, 24 hours or 72 hours.
Hybridization data for pools from each receptor group of rats was compiled.

[4] = tested on: fixed Caco-2 or C2BBe1 cells; test: ELISA of GST fusion proteins on fixed Caco-2 or C2BBe1 cells; assay type: binding
Description: Fixed Caco-2, C2BBe1, and A431 cell plates were prepared by growing cells on tissue culture treated microtiter plates. When cells were confluent, plates were fixed with 10% formaldehyde, washed twice with PBS and stored with 0.5% BSA-PBS at −20° C. […] The standard ELISA procedure was followed at this point.
The standard ELISA procedure was modified as follows. GST proteins were diluted to an appropriate concentration in PBS containing 1% BSA and 0.05% Tween20 (1% BPT), titered and incubated one hour at room temperature. Following five washes an anti-GST monoclonal antibody was added (Sigma, St. Louis Clone GST-2 diluted 1:10,000 in 1% BPT) and incubated one hour. After five more washes goat anti-mouse IgG2b-HRP was added (Southern Biotechnology Associates Inc., Birmingham, Ala., diluted 1:4000 in 1% BPT) and incubated one hour. After five washes plates were developed with TMB peroxidase substrate (Kirkegard and Perry, Gaithersburg, Md.). All data is presented with background binding subtracted.

fixed Caco-2 cells = test: Effect of thrombin cleavage on binding of GST-peptide fusions to fixed Caco-2 cells
Description: Binding of intact and thrombin-cleaved GST-peptide fusions to fixed Caco-2 cells was compared.
Thirty micrograms of each GST-peptide was treated with bovine thrombin (1μ/ml; 0.4 NIH units; Sigma CN.T9681) for 18 h at room temperature in 20 mM Tris-HCl pH8.0, 150 mM NaCl, 2.5 mM CaCl2. Controls were similarly treated without addition of thrombin. Ten micrograms of each GST-peptide fusion was removed for PAGE analysis, and 10 μg of fusions were added in duplicate to the fixed Caco-2 cells before 5-fold serial dilutions (1% BPT diluent). The fusions were allowed to bind for 1 h at room temperature. Following 6 washes with 1% BPT, binding was assayed by ELISA.

[5] = tested on: P100 membrane fraction derived from Caco-2 cells; test: GST-PAX2 peptides relative binding to P100 fractions; conditions: 20 μg/ml; binding to plastic subtracted; GST-HAX42 = 1.00
Description: The peptides and proteins were analyzed by a dansylated peptide ELISA method in which 96 well plates were coated overnight at 4° C. with 100 μl/well coating protein (normally 100 μg/ml P100 membrane fraction) in 0.05M carbonate buffer pH9.6. Nonspecific binding was blocked using 200 μl/well, 2% Marvel/PBS for 2 hours at 37° C. prior to incubation with dansylated peptides. The plates were washed three times with PBS/0.05% Tween 20 and after each subsequent incubation step. […] A buffer blank control was included to ensure that background binding to plastic was not due to the antibodies used in the assay system. […] The plates were then incubated with an anti-mouse λ-HRP conjugated antibody (Southern Biotech 1060-05) at a 1:10,000 dilution in blocking solution, 100 μl/well for 1 hour at room temperature. Plates were developed using 75 μl/well Bionostics TMB substrate and incubated for approximately 10 minutes. The developing reaction was stopped using Bionostics Red Stop solution (25 μl/well), and the optical density of the plates was read at 650 nm.
After subtraction of the GST-peptide binding to plastic from P100 binding values, the binding of GST-PAX2 peptides were represented as a ratio of GST-HAX42 binding to P100, which was given the arbitrary value of 1.00. The following ratios were determined from binding to P100 of GST-peptides at a peptide concentration of 20 μg/ml. Bold denotes positive binding to the P100 membrane fraction.

[6] = Crossreactive binding of GST fusions to dansylated peptides

C[C@@H](O)[C@H](NC(=O)[C@@H](N)CCCCNS(=O)(=O)c1cccc2c(N(C)C)cccc12)C(=O)N[C@@H](CCCNC(=N)N)C(=O)N[C@@H](CCCCN)C(=O)N[C@@H](CO)C(=O)N[C@@H](CO)C(=O)N[C@@H](CCCNC(=N)N)C(=O)N[C@@H](CO)C(=O)N[C@@H](CC(N)=O)C(=O)N1CCC[C@H]1C(=O)N[C@@H](CCCNC(=N)N)C(=O)NCC(=O)N[C@@H](CCCNC(=N)N)C(=O)N[C@@H](CCCNC(=N)N)C(=O)N[C@@H](Cc1c[nH]cn1)C(=O)N1CCC[C@H]1C(=O)NCC(N)=O [ZElan031] (H-K(Dansyl)TRKSSRSNPRGRRHPG-NH2)
Rel. Stab. [1]: 3

C[C@@H](O)[C@H](NC(=O)[C@@H](N)CCCCNS(=O)(=O)c1cccc2c(N(C)C)cccc12)C(=O)N[C@@H](CCCNC(=N)N)C(=O)N[C@@H](CCCCN)C(=O)N[C@@H](CO)C(=O)N[C@@H](CO)C(=O)N[C@H](CCCNC(=N)N)C(=O)N[C@@H](CO)C(=O)N[C@@H](CC(N)=O)C(=O)N1CCC[C@H]1C(=O)N[C@@H](CCCNC(=N)N)C(=O)NCC(=O)N[C@H](CCCNC(=N)N)C(=O)N[C@@H](CCCNC(=N)N)C(=O)N[C@@H](Cc1c[nH]cn1)C(=O)N1CCC[C@H]1C(=O)NCC(N)=O [ZElan054, H2N-K(dns)TRKSSrSNPRGrRHPG-CONH2] (H-K(Dansyl)TRKSS[dR]SNPRG[dR]RHPG-NH2)
Rel. Stab. [1]: 2

SARDSGPAEDGSRAVRLNGVENANTRKSSRSNPRGRRHP [Peptide P31]
BSA (BSA; Table 4): 0.075 OD
Insulin (insulin potency) [2]: 67.0 mg/g
Peptide (level of peptide coated onto the particles) [2]: 1.22 µL/mg
presence in the systemic circulation (in words) [3]: found in the systemic circulation
transport from the GIT closed loop into the portal circulation (in words) [3]: found in the portal circulation
presence in the intestine samples or fractions (in words) [3]: preferential binding

SDHALGTNLRSDNAKEPGDYNCCGNGNSTGRKVFNRRRPSAIPT [HAX42]
BSA (BSA; Table 5): 0.071 OD
Insulin (insulin potency) [2]: 55.9 mg/g
Peptide (level of peptide coated onto the particles) [2]: 2.93 µL/mg
presence in the systemic circulation (in words) [3]: found in the portal and systemic circulation
transport from the GIT closed loop into the portal circulation (in words) [3]: found in the portal and systemic circulation

SQGSKQCMQYRTGRLTVGSEYGCGMNPARHATPAYPARLLPRYR [DCX11]
BSA (BSA; Table 3): 0.071 OD
transport from the GIT closed loop into the portal circulation (in words) [3]: preferably transported
presence in the intestine samples or fractions (in words) [3]: found in the intestinal samples fractions

gst-ENANTRKSSRSNPRGRRHP [GST-P31.103]
binding of truncated GST fusion compared with full-length, fixed Caco-2 cells ([4]; Caco-2): bound almost as well as full-length P31
effect of thrombin cleavage on detection of binding to fixed Caco-2 cells (fixed Caco-2 cells; Caco-2): significantly reduced

gst-RVGQCTDSDVRRPWARSCAHQGCGAGTRNSHGCITRPLRQASAH [GST-SNi10]
binding to fixed Caco-2 or C2BBe1 cells relative to GST control ([4]; anti-GST ELISA): bound
effect of thrombin cleavage on detection of binding to fixed Caco-2 cells (fixed Caco-2 cells; thrombin 18 h at room temperature): significantly reduced

gst-SDHALGTNLRSDNAKEPGDYNCCGNGNSTGRXVFNRRRPSAIPT [GST-HAX42]
binding to fixed Caco-2 or C2BBe1 cells relative to GST control ([4]; Caco-2): weak to moderate binding
Value: binding to P100 as a ratio of GST-HAX42 binding [5]: 1.00
crossreactivity to ZElan018 (PAX2) and ZElan021 (HAX42) ([6]; 5 μg/ml GST fusion): exhibited crossreactivity

gst-STPPSREAYSRPYSVDSDSDTNAKHSSHNRRLRTRSRPN [GST-PAX2]
binding to fixed Caco-2 or C2BBe1 cells relative to GST control ([4]; Caco-2): bound
Value: binding to P100 as a ratio of GST-HAX42 binding [5]: 1.79
crossreactive binding to ZElan024 (P31) and ZElan018 (PAX2) ([6]; 0.5 μg/ml GST fusion): no crossreactive binding

gst-TNAKHSSHNRRLRTRSRPN [GST-106]
binding of truncated GST fusion compared with full-length, fixed Caco-2 cells ([4]; Caco-2): bound similarly to full-length PAX2
effect of thrombin cleavage on detection of binding to fixed Caco-2 cells (fixed Caco-2 cells; Caco-2): significantly reduced
Value: binding to P100 as a ratio of GST-HAX42 binding [5]: 2.71
